Target: USP22 (ubiquitin-specific protease 22) (UniProt Q9UPT9)
Assay: co-IP of myc-MYH9 and Flag-USP22
Settings: reference: wild-type MYH9; sites S1943

**Q.** Which “binding against the reference” value does the source give for “MYH9 (non-muscle myosin heavy chain 9) (from UniProt P35579) MYH9-S1943A” here?
**A.** lost
